The supplement of paper PMC10567573

B1: BEX1 (parent)
chain: EENMERIGEEVRQLMEKLREKQLS
B2: PBXIP1 (parent)
chain: EKQKQPRWREGTKDSHDPLPSWAE

Variants of: B1
Assay: protein stability index of a GFP-peptide fusion (GPS, HEK-293T) (PSI 1-6); higher = more stable
Details: c terminus: a fixed tail appended
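Note: lentivirally expressed fusions sorted by FACS into six bins by GFP to DsRed ratio, PSI derived from sequencing read proportions per bin multiplied by bin number.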

Compared with R6A, E2I is lower in protein stability index: 4.94 for the first, 4 for the second.

First: M15Y
Second: G8Q
The protein stability index of the first is higher: 4.89 for the first, 4.36 for the second.

Compared with G8S, G8Y is higher in protein stability index: 4.47 for the first, 4.5 for the second.

Compared with M15P, R19E is lower in protein stability index: 5.5 for the first, 5.31 for the second.

First: I7Y
Second: S24D
The protein stability index of the first is higher: 4.92 for the first, 4.91 for the second.

Compared with L23S, M15I is higher in protein stability index: 3.89 for the first, 4.87 for the second.

First: E5N
Second: R12I
The protein stability index of the first is higher: 4.96 for the first, 4.22 for the second.

First: L14W
Second: E1D
The protein stability index of the first is higher: 4.7 for the first, 2.37 for the second.

Compared with E1Y, K21D is higher in protein stability index: 4.14 for the first, 4.97 for the second.

Compared with K17G, K21Y is lower in protein stability index: 4.86 for the first, 3.04 for the second.

First: Q22N
Second: N3W
The protein stability index of the first is higher: 5.16 for the first, 4.32 for the second.

Going from K21I to R6C, the protein stability index rises from 3.7 to 4.25.

Going from E2W to L14V, the protein stability index rises from 4.53 to 4.97.

Compared with L18E, Q22S is lower in protein stability index: 5.35 for the first, 3.92 for the second.

Compared with I7Q, R6E is higher in protein stability index: 5.33 for the first, 5.71 for the second.

First: L23M
Second: K17W
The protein stability index of the first is lower: 4.1 for the first, 4.17 for the second.

With E16C the protein stability index was 3.87.

Variants of: B2
Assay: as above
Details: c terminus: a fixed tail appended

Going from E1A to E1C, the protein stability index falls from 2.67 to 2.08.

Going from E1F to E1G, the protein stability index rises from 1.4 to 1.66.

First: E1H
Second: E1I
The protein stability index of the first is higher: 2.64 for the first, 2.16 for the second.

Compared with E1K, E1L is lower in protein stability index: 2.33 for the first, 2.19 for the second.

Going from E1M to E1P, the protein stability index falls from 1.7 to 1.22.

Going from E1Q to E1R, the protein stability index rises from 2 to 2.19.

Going from E1T to K2C, the protein stability index rises from 2.38 to 2.96.

Compared with K2D, K2E is higher in protein stability index: 2.04 for the first, 3.03 for the second.

Compared with K2F, K2G is higher in protein stability index: 1.85 for the first, 2.97 for the second.

Compared with K2H, K2I is higher in protein stability index: 1.66 for the first, 2.63 for the second.

Going from K2N to K2P, the protein stability index rises from 1.46 to 1.77.

Compared with K2Q, K2R is lower in protein stability index: 2.69 for the first, 2.02 for the second.

First: K2S
Second: K2W
The protein stability index of the first is higher: 2.15 for the first, 1.43 for the second.

Compared with K2Y, Q3C is lower in protein stability index: 2.81 for the first, 2.21 for the second.

Going from Q3G to Q3H, the protein stability index falls from 2.03 to 1.78.

Going from Q3L to Q3N, the protein stability index rises from 1.59 to 2.58.

Going from Q3P to Q3R, the protein stability index rises from 1.63 to 2.14.

Compared with Q3S, Q3T is higher in protein stability index: 1.55 for the first, 1.89 for the second.

First: Q3V
Second: Q3W
The protein stability index of the first is lower: 1.34 for the first, 1.41 for the second.

Going from Q3Y to K4A, the protein stability index rises from 1.32 to 1.72.

First: K4C
Second: K4D
The protein stability index of the first is higher: 2.63 for the first, 1.72 for the second.

First: K4E
Second: K4F
The protein stability index of the first is lower: 1.59 for the first, 1.99 for the second.

First: K4G
Second: K4H
The protein stability index of the first is lower: 1.89 for the first, 2.66 for the second.

First: K4I
Second: K4M
The protein stability index of the first is higher: 3.8 for the first, 1.54 for the second.

Compared with K4N, K4P is lower in protein stability index: 2.02 for the first, 1.56 for the second.

Going from K4Q to K4R, the protein stability index rises from 1.92 to 2.07.

Compared with K4S, K4T is higher in protein stability index: 1.85 for the first, 1.92 for the second.

Compared with K4V, K4W is lower in protein stability index: 1.21 for the first, 1 for the second.

Compared with K4Y, Q5A is higher in protein stability index: 3 for the first, 3.71 for the second.

First: Q5C
Second: Q5D
The protein stability index of the first is higher: 3.72 for the first, 1.99 for the second.

Compared with Q5E, Q5F is lower in protein stability index: 2.66 for the first, 2.09 for the second.

Going from Q5G to Q5H, the protein stability index rises from 1.99 to 2.11.

Going from Q5K to Q5L, the protein stability index falls from 2.18 to 1.82.

Compared with Q5M, Q5N is higher in protein stability index: 1.55 for the first, 2.1 for the second.

First: Q5P
Second: Q5R
The protein stability index of the first is lower: 1.68 for the first, 2.57 for the second.

Compared with Q5Y, P6A is lower in protein stability index: 2.37 for the first, 1.3 for the second.

First: P6C
Second: P6D
The protein stability index of the first is lower: 1.48 for the first, 2.48 for the second.

Going from P6E to P6F, the protein stability index rises from 1.89 to 2.43.

Going from P6G to P6H, the protein stability index rises from 2.11 to 2.53.

Going from P6L to P6S, the protein stability index falls from 2.79 to 2.4.

Going from P6T to P6W, the protein stability index falls from 3.31 to 1.98.

Going from P6Y to R7A, the protein stability index falls from 3.67 to 1.59.

First: R7C
Second: R7D
The protein stability index of the first is higher: 5.92 for the first, 2.47 for the second.

Going from R7F to R7G, the protein stability index falls from 2.54 to 2.14.

First: R7H
Second: R7I
The protein stability index of the first is higher: 2.05 for the first, 1.96 for the second.

First: R7K
Second: R7L
The protein stability index of the first is higher: 2.02 for the first, 1.32 for the second.

Going from R7M to R7N, the protein stability index rises from 1.94 to 3.14.

Compared with R7P, R7S is lower in protein stability index: 2.33 for the first, 1.23 for the second.

Compared with R7T, R7W is higher in protein stability index: 1.57 for the first, 2.53 for the second.

Going from R7Y to W8A, the protein stability index rises from 1.47 to 2.09.

First: W8C
Second: W8D
The protein stability index of the first is lower: 2.31 for the first, 3.2 for the second.

Compared with W8E, W8F is lower in protein stability index: 3.08 for the first, 1.88 for the second.

Compared with W8G, W8H is higher in protein stability index: 2.04 for the first, 2.41 for the second.

Compared with W8I, W8K is higher in protein stability index: 2.06 for the first, 2.46 for the second.

Compared with W8M, W8N is higher in protein stability index: 2 for the first, 3.03 for the second.

First: W8R
Second: W8T
The protein stability index of the first is higher: 2.54 for the first, 1.58 for the second.

Compared with W8V, W8Y is lower in protein stability index: 2.05 for the first, 1.94 for the second.

Compared with R9A, R9C is lower in protein stability index: 1.79 for the first, 1.39 for the second.

Compared with R9D, R9E is higher in protein stability index: 1.76 for the first, 3.15 for the second.

Compared with R9H, R9I is higher in protein stability index: 1.04 for the first, 1.89 for the second.

First: R9K
Second: R9L
The protein stability index of the first is lower: 2.32 for the first, 2.48 for the second.

First: R9M
Second: R9P
The protein stability index of the first is higher: 2.35 for the first, 1.84 for the second.

Compared with R9Q, R9S is higher in protein stability index: 1.34 for the first, 1.39 for the second.

First: R9T
Second: R9W
The protein stability index of the first is higher: 2.17 for the first, 1.66 for the second.

Going from E10A to E10C, the protein stability index rises from 1.14 to 2.32.

First: E10D
Second: E10F
The protein stability index of the first is higher: 3 for the first, 2.27 for the second.

Going from E10G to E10I, the protein stability index rises from 1.05 to 2.1.
